Substitutions are numbered along the chain they refer to. In names and notes the source's numbering stands. Where two headings read alike, the source gives them in different places.
B1: H1.79_L1 (antibody, V domains shown)
VH: EVQLVESGGGLVQPGGSLRLSCAASGFTFSSFGMHWVRQAPGKGLEWVSYISSGSYIIYYADSVKGRFTISRDNAKNSLYLQMNSLRAEDTAVYYCARGGRLVWSPDYWGQGTLVTVSS
VL: DIVMTQSPDSLAVSLGERATINCKSSQSLLNSGNQKNYLTWYQQKPGQPPKLLIYWASTRESGVPDRFTGSGSGTDFTLTISSLQAEDVAVYYCQNDYSYPFTFGSGTKLEIKR
notes: also called VH-S60Y; Kabat 55
B2: H1.80_L1 (antibody, V domains shown)
VH: B1 VH with Y56S, I57V
VL: B1 VL
notes: also called VH-I61V; Kabat 56
B3: H1.85_L1 (antibody, V domains shown)
VH: B1 VH with Y56S, I57A
VL: B1 VL
notes: also called VH-I61A; Kabat 56
B4: H1.89_L1 (antibody, V domains shown)
VH: B1 VH with Y56S, I58V
VL: B1 VL
notes: also called VH-I62V; Kabat 57
B5: H1.90_L1 (antibody, V domains shown)
VH: B1 VH with Y56S, I58L
VL: B1 VL
notes: also called VH-I62L; Kabat 57
B6: H1.91_L1 (antibody, V domains shown)
VH: B1 VH with Y56S, I58F
VL: B1 VL
notes: also called VH-I62F; Kabat 57
B7: H1.92_L1 (antibody, V domains shown)
VH: B1 VH with Y56S, I58T
VL: B1 VL
notes: also called VH-I62T; Kabat 57
B8: H1.93_L1 (antibody, V domains shown)
VH: B1 VH with Y56S, I58W
VL: B1 VL
notes: also called VH-I62W; Kabat 57
B9: H1.94_L1 (antibody, V domains shown)
VH: B1 VH with Y56S, I58A
VL: B1 VL
notes: also called VH-I62A; Kabat 57
B10: H1.95_L1 (antibody, V domains shown)
VH: B1 VH with Y56S, I58N
VL: B1 VL
notes: also called VH-I62N; Kabat 57
B11: H1.96_L1 (antibody, V domains shown)
VH: B1 VH with Y56S, I58E
VL: B1 VL
notes: also called VH-I62E; Kabat 57
B12: H1.97_L1 (antibody, V domains shown)
VH: B1 VH with Y56S, I58K
VL: B1 VL
notes: also called VH-I62K; Kabat 57
B13: H1.99_L1 (antibody, V domains shown)
VH: B1 VH with Y56S, Y59H
VL: B1 VL
notes: also called VH-Y63H; Kabat 58
B14: H1.147_L1 (antibody, V domains shown)
VH: B1 VH with Y56S, V103Q
VL: B1 VL
notes: also called VH-V111Q; Kabat 99
B15: H1.148_L1 (antibody, V domains shown)
VH: B1 VH with Y56S, V103W
VL: B1 VL
notes: also called VH-V111W; Kabat 99
B16: H1.149_L1 (antibody, V domains shown)
VH: B1 VH with Y56S, V103D
VL: B1 VL
notes: also called VH-V111D; Kabat 99
B17: H1.150_L1 (antibody, V domains shown)
VH: B1 VH with Y56S, V103K
VL: B1 VL
notes: also called VH-V111K; Kabat 99
B18: H1.153_L1 (antibody, V domains shown)
VH: B1 VH with Y56S, W104Y
VL: B1 VL
notes: also called VH-W112Y; Kabat 100; copies: 2 + 2
B19: H1.155_L1 (antibody, V domains shown)
VH: B1 VH with Y56S, W104H
VL: B1 VL
notes: also called VH-W112H; Kabat 100; copies: 2 + 2
B20: H1.156_L1 (antibody, V domains shown)
VH: B1 VH with Y56S, W104Q
VL: B1 VL
notes: also called VH-W112Q; Kabat 100; copies: 2 + 2
B21: H1.157_L1 (antibody, V domains shown)
VH: B1 VH with Y56S, W104S
VL: B1 VL
notes: also called VH-W112S; Kabat 100; copies: 2 + 2
B22: H1.158_L1 (antibody, V domains shown)
VH: B1 VH with Y56S, W104E
VL: B1 VL
notes: also called VH-W112E; Kabat 100; copies: 2 + 2
B23: H1.160_L1 (antibody, V domains shown)
VH: B1 VH with Y56S, S105T
VL: B1 VL
notes: also called VH-S113T; Kabat 100a
B24: H1.161_L1 (antibody, V domains shown)
VH: B1 VH with Y56S, S105A
VL: B1 VL
notes: also called VH-S113A; Kabat 100a
B25: H1.163_L1 (antibody, V domains shown)
VH: B1 VH with Y56S, S105G
VL: B1 VL
notes: also called VH-S113G; Kabat 100a
B26: H1.164_L1 (antibody, V domains shown)
VH: B1 VH with Y56S, S105V
VL: B1 VL
notes: also called VH-S113V; Kabat 100a
B27: H1.166_L1 (antibody, V domains shown)
VH: B1 VH with Y56S, S105D
VL: B1 VL
notes: also called VH-S113D; Kabat 100a
B28: H1_L1.2 (antibody, V domains shown)
VH: B1 VH with Y56S
VL: B1 VL with N31E
notes: also called VL-N31E; Kabat 27d
B29: H1_L1.5 (antibody, V domains shown)
VH: B1 VH with Y56S
VL: B1 VL with N31L
notes: also called VL-N31L; Kabat 27d
B30: H1_L1.6 (antibody, V domains shown)
VH: B1 VH with Y56S
VL: B1 VL with N31T
notes: also called VL-N31T; Kabat 27d
B31: H1_L1.7 (antibody, V domains shown)
VH: B1 VH with Y56S
VL: B1 VL with N31G
notes: also called VL-N31G; Kabat 27d
B32: H1_L1.8 (antibody, V domains shown)
VH: B1 VH with Y56S
VL: B1 VL with N31Y
notes: also called VL-N31Y; Kabat 27d
B33: H1_L1.9 (antibody, V domains shown)
VH: B1 VH with Y56S
VL: B1 VL with S32T
notes: also called VL-S32T; Kabat 27e
B34: H1_L1.10 (antibody, V domains shown)
VH: B1 VH with Y56S
VL: B1 VL with S32A
notes: also called VL-S32A; Kabat 27e
B35: H1_L1.11 (antibody, V domains shown)
VH: B1 VH with Y56S
VL: B1 VL with S32Q
notes: also called VL-S32Q; Kabat 27e
B36: H1_L1.12 (antibody, V domains shown)
VH: B1 VH with Y56S
VL: B1 VL with S32V
notes: also called VL-S32V; Kabat 27e
B37: H1_L1.13 (antibody, V domains shown)
VH: B1 VH with Y56S
VL: B1 VL with S32H
notes: also called VL-S32H; Kabat 27e
B38: H1_L1.14 (antibody, V domains shown)
VH: B1 VH with Y56S
VL: B1 VL with S32K
notes: also called VL-S32K; Kabat 27e

What was measured:
human PD-1-His [1] = molecular target: T1, human PD-1-His (human, UniProt Q15116 25-167, limits assumed); test: Octet
T1 construct: Antigen of the Octet assays; not shown: His tag

human PD-1-His [2] = molecular target: T1, human PD-1-His; test: Octet; remark: listed apart in the source

T1 sequence (Q15116 25-167 limits assumed): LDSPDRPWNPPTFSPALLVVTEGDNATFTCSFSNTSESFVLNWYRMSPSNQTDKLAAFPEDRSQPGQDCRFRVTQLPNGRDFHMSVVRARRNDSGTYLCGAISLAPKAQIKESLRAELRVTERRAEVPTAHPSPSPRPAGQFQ

Row | Binder | Kd (human PD-1-His [1]) | koff (human PD-1-His [1]) | kon (human PD-1-His [1]) | Kd (human PD-1-His [2]) | koff (human PD-1-His [2]) | kon (human PD-1-His [2]) | binding result (human PD-1-His [2])
1 | B1 | 43.4 nM | 0.00686 s⁻¹ | 158000 M⁻¹ s⁻¹ | – | – | – | –
2 | B2 | 207 nM | 0.0466 s⁻¹ | 226000 M⁻¹ s⁻¹ | – | – | – | –
3 | B3 | 132 nM | 0.0618 s⁻¹ | 467000 M⁻¹ s⁻¹ | – | – | – | –
4 | B4 | 43.2 nM | 0.00669 s⁻¹ | 155000 M⁻¹ s⁻¹ | – | – | – | –
5 | B5 | 51.5 nM | 0.00727 s⁻¹ | 141000 M⁻¹ s⁻¹ | – | – | – | –
6 | B6 | 61 nM | 0.00917 s⁻¹ | 150000 M⁻¹ s⁻¹ | – | – | – | –
7 | B7 | 47.8 nM | 0.00851 s⁻¹ | 178000 M⁻¹ s⁻¹ | – | – | – | –
8 | B8 | 31 nM | 0.00528 s⁻¹ | 170000 M⁻¹ s⁻¹ | – | – | – | –
9 | B9 | 80.6 nM | 0.0161 s⁻¹ | 200000 M⁻¹ s⁻¹ | – | – | – | –
10 | B10 | 73.4 nM | 0.0119 s⁻¹ | 162000 M⁻¹ s⁻¹ | – | – | – | –
11 | B11 | 41.6 nM | 0.00751 s⁻¹ | 181000 M⁻¹ s⁻¹ | – | – | – | –
12 | B12 | 114 nM | 0.0175 s⁻¹ | 154000 M⁻¹ s⁻¹ | – | – | – | –
13 | B13 | 261 nM | 0.0651 s⁻¹ | 250000 M⁻¹ s⁻¹ | – | – | – | –
14 | B14 | – | – | – | 92.3 nM | 0.013 s⁻¹ | 140000 M⁻¹ s⁻¹ | –
15 | B15 | – | – | – | 77.5 nM | 0.0112 s⁻¹ | 144000 M⁻¹ s⁻¹ | –
16 | B16 | – | – | – | 116 nM | 0.0116 s⁻¹ | 99700 M⁻¹ s⁻¹ | –
17 | B17 | – | – | – | 60 nM | 0.00524 s⁻¹ | 87200 M⁻¹ s⁻¹ | –
18 | B18 | – | – | – | – | – | – | no binding
19 | B19 | – | – | – | – | – | – | no binding

Row | Binder | Kd (human PD-1-His [1]) | koff (human PD-1-His [1]) | kon (human PD-1-His [1]) | Kd (human PD-1-His [2]) | koff (human PD-1-His [2]) | kon (human PD-1-His [2]) | binding result (human PD-1-His [2])
20 | B20 | – | – | – | – | – | – | no binding
21 | B21 | – | – | – | – | – | – | no binding
22 | B22 | – | – | – | – | – | – | no binding
23 | B23 | – | – | – | 90.7 nM | 0.00764 s⁻¹ | 84300 M⁻¹ s⁻¹ | –
24 | B24 | – | – | – | 47.5 nM | 0.00755 s⁻¹ | 159000 M⁻¹ s⁻¹ | –
25 | B25 | – | – | – | 92 nM | 0.0113 s⁻¹ | 123000 M⁻¹ s⁻¹ | –
26 | B26 | – | – | – | 280 nM | 0.0166 s⁻¹ | 59400 M⁻¹ s⁻¹ | –
27 | B27 | – | – | – | 189 nM | 0.0457 s⁻¹ | 242000 M⁻¹ s⁻¹ | –
28 | B28 | – | – | – | 152 nM | 0.0228 s⁻¹ | 150000 M⁻¹ s⁻¹ | –
29 | B29 | – | – | – | 32.9 nM | 0.00569 s⁻¹ | 173000 M⁻¹ s⁻¹ | –
30 | B30 | – | – | – | 64.6 nM | 0.00777 s⁻¹ | 120000 M⁻¹ s⁻¹ | –
31 | B31 | – | – | – | 84.6 nM | 0.00875 s⁻¹ | 103000 M⁻¹ s⁻¹ | –
32 | B32 | – | – | – | 307 nM | 0.0247 s⁻¹ | 80600 M⁻¹ s⁻¹ | –
33 | B33 | – | – | – | 46.7 nM | 0.005 s⁻¹ | 107000 M⁻¹ s⁻¹ | –
34 | B34 | – | – | – | 82.9 nM | 0.00755 s⁻¹ | 91000 M⁻¹ s⁻¹ | –
35 | B35 | – | – | – | 103 nM | 0.00997 s⁻¹ | 96500 M⁻¹ s⁻¹ | –
36 | B36 | – | – | – | 111 nM | 0.0115 s⁻¹ | 104000 M⁻¹ s⁻¹ | –
37 | B37 | – | – | – | 103 nM | 0.0106 s⁻¹ | 102000 M⁻¹ s⁻¹ | –
38 | B38 | – | – | – | 170 nM | 0.0141 s⁻¹ | 83200 M⁻¹ s⁻¹ | –

— patent US20240294593A1 (Genentech, published 2024)
